Drawing on publication PMC9006298, this text covers Kd for 1 substance.

As a reminder, the Kd is the constant that tells how readily two partners part at equilibrium. A low value points to a tighter complex.

This experiment deals with p.Arg127Gln GPIbα (amino acids Met1-Glu301) (human) (UniProt P07359). Briefly: SPR. Background: Surface plasmon resonance follows binding to a sensor surface in real time, without labels.
UniProt P07359, sequence (P07359 17-301 R127Q): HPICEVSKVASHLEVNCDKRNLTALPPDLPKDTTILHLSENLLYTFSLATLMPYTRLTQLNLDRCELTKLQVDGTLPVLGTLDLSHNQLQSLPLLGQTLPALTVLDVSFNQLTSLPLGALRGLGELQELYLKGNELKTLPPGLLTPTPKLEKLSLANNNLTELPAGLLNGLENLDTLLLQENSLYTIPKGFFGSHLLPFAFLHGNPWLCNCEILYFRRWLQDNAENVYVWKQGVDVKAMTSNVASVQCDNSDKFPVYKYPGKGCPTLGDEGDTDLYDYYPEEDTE

Consider VWF A1 domain (domain or fragment), for which the Kd worked out at 2040 nM.
